Experiments:
[1] = target: T1, human C-MET His tagged, monomeric (human, UniProt P08581 25-932); assay: SPR Biacore, IgG captured, monomeric C-MET-His analyte
T1 construct: also called monomeric human C-MET; biotinylated human C-MET-His
Protocol: (§1) Affinity (KD) of purified IgGs was determined via SPR with antigen in-solution on a Biacore® 3000 (GE). A mouse anti-human antibody (CH1 specific) was immobilized on a CM5 Sensor Chip to a level of 2000 RU in acetate buffer at pH 4.5 using amine coupling following the Wizard instructions for two channels. One channel was used for background signal correction. The standard running buffer HBS-EP pH 7.4 was used. Regeneration was performed with a single injection of 10 μl of 10 mM Glycine at pH 1.5 at 20 μl/minute. IgG samples were injected for 2 minutes at 50 nM at 30 μl/min followed by and off-rate of 60 seconds. The monomeric antigen (human C-MET His tagged or cynomolgus monkey C-MET His tag) was injected in two fold serial dilutions from 100 nM down to 6 nM, for 2 minutes at 30 μl/min followed by an off-rate of 300 seconds. The obtained sensorgrams were analysed using the Biacore® 3000 evaluation (BIAevaluation) software. The KD was calculated by simultaneous fitting of the association and dissociation phases to a 1:1 Langmuir binding model.

[2] = target: T2, cynomolgus monkey C-MET His tag, monomeric (cynomolgus monkey, UniProt A0M8R7 25-932 (Papio anubis entry)); assay: as above
T2 construct: also called monomeric cyno C-MET; cyCMET
T2 sequence (A0M8R7 25-932 S170N/I621T): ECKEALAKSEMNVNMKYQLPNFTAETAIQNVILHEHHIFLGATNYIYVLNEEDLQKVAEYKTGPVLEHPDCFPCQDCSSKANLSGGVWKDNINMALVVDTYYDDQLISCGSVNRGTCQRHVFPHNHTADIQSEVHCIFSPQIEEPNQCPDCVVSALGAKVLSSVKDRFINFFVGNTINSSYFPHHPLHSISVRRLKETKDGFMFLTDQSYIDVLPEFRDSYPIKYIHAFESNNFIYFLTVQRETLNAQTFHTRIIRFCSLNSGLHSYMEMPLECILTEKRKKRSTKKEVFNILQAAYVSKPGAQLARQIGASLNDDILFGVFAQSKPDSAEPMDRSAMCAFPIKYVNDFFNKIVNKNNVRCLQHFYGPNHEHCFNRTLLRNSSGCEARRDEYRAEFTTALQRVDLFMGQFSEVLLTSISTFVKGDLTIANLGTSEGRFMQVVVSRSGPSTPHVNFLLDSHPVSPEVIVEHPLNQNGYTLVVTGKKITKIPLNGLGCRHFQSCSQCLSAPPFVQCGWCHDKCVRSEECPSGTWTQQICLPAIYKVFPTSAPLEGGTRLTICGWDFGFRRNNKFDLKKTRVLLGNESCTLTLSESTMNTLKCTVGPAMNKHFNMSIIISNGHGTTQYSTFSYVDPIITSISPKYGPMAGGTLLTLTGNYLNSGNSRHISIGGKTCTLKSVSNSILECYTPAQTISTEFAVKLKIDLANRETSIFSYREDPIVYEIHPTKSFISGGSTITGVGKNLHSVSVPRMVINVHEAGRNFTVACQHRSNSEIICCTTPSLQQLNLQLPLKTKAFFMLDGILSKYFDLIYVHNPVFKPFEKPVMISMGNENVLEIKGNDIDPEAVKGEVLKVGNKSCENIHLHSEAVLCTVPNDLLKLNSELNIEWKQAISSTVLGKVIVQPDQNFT
Protocol: as §1

[3] = target: T2, cynomolgus monkey C-MET His tag, …; assay: SPR Biacore, monomeric cyno against monomeric human C-MET
Protocol: as §1

[4] = target: T3, cynomolgus monkey C-MET on stably transfected CHO-K1 cells (cynomolgus monkey, UniProt A0M8R7 25-1381 (Papio anubis entry)); assay: flow cytometry, C-MET CHO-K1 cells
T3 construct: also called cycMET; cyno C-MET+ CHO-K1 cells
T3 sequence (A0M8R7 25-1381 S170N/I621T limits assumed): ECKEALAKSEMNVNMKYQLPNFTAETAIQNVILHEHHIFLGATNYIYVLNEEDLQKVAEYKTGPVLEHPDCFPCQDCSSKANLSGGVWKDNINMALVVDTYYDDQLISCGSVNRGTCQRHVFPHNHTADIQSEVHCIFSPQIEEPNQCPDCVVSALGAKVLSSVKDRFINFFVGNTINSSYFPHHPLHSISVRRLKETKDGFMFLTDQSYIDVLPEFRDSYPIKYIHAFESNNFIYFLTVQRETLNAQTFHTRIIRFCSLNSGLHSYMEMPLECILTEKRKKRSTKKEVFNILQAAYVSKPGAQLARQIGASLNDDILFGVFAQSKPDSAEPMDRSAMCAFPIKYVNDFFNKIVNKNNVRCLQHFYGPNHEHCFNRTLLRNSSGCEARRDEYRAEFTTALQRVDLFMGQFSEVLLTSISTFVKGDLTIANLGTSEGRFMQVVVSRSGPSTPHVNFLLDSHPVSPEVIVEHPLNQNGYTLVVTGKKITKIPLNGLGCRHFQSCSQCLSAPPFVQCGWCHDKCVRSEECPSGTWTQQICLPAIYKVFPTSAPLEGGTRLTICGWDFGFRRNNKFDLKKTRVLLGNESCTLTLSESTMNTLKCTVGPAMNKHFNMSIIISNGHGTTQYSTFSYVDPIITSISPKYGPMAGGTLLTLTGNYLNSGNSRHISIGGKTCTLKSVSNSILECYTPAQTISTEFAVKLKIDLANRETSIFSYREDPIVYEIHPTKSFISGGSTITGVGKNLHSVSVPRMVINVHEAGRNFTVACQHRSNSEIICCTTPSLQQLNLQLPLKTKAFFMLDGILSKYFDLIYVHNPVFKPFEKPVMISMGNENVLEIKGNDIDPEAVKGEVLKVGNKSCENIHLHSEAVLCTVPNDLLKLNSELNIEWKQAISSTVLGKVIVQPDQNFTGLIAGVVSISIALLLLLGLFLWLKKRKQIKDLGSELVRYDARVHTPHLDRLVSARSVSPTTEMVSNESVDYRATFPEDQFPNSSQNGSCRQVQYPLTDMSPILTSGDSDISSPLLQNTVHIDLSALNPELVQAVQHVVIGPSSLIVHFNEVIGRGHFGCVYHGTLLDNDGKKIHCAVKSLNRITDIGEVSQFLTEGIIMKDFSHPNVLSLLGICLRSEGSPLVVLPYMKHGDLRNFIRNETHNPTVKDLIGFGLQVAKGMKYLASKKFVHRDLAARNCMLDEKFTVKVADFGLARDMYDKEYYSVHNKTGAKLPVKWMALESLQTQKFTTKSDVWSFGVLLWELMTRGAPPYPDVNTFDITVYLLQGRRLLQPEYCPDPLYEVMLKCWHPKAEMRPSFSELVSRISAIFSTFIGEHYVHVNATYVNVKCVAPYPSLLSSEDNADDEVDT
Protocol: (§2) Purified IgGs were tested in FACs for binding to human and cyno C-MET expressed on CHO-K1 stable cell lines and CHO-K1 wild-type cells. The IgG samples were titrated in three-fold serial dilutions starting at 500 nM to 0.08 nM. Binding of IgGs was detected with a mouse anti-human IgG conjugated to FITC. Results were analyzed by examining the Mean Fluorescence Intensity (MFI) of 10000 cells per sample in the BL-1 channel detector of a flow cytometer (Attune™ NxT Acoustic Focusing Cytometer, Invitrogen/ThermoFisher Scientific).
(§3) Antibodies to C-MET were analysed for concentration-dependent binding at the cell surface via flow cytometry. CHO-K1 cells were stably transfected with either human or cyno C-MET full-length cDNAs. Anti-C-MET IgGs and an isotype control IgG4(S228P) were then all tested in IgG4(S228P) format, over a concentration range of 500-0.08 nM for binding to human (FIG. 5A) and cyno (FIG. 5B) CHO-K1 cells.

[5] = target: T4, human C-MET on stably transfected CHO-K1 cells (human, UniProt P08581 25-1390); assay: flow cytometry, C-MET CHO-K1 cells
T4 construct: also called hucMET; human C-MET+ CHO-K1 cells
T4 sequence (P08581 25-1390 limits assumed): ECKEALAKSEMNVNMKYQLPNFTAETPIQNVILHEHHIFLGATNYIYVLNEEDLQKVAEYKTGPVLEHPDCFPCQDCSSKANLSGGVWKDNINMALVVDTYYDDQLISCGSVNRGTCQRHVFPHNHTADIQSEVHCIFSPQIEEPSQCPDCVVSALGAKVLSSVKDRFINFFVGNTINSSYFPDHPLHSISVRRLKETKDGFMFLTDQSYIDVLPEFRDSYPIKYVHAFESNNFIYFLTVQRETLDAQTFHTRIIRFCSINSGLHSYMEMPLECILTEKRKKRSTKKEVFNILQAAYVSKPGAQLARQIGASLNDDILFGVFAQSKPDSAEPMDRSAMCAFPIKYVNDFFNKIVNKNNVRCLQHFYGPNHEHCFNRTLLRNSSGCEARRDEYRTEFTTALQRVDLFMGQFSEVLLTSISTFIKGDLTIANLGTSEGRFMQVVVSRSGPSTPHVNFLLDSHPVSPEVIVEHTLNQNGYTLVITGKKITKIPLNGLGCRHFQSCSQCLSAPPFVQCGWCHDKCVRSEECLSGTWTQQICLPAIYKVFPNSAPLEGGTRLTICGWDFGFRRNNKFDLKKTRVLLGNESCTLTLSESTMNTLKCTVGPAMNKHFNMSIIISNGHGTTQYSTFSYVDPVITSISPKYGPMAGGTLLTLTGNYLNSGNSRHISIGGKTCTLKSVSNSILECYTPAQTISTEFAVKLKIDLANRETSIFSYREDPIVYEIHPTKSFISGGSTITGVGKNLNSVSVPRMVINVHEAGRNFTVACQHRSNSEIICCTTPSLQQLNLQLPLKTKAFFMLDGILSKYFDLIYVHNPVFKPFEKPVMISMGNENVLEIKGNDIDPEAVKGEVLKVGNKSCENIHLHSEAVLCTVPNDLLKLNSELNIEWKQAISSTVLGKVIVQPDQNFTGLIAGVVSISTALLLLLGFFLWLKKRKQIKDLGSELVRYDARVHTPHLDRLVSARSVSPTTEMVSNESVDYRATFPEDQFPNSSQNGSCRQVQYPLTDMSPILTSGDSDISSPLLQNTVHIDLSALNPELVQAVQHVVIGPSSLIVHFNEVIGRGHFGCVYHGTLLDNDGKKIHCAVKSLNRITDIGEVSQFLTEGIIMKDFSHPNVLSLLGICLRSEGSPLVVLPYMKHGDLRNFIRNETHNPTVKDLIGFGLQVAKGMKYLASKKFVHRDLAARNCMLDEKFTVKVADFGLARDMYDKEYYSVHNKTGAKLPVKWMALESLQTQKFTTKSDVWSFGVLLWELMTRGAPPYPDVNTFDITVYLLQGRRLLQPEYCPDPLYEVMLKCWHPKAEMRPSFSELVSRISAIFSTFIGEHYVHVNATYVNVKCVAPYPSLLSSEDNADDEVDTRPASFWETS
Protocol: as §2, §3

[6] = target: T3, cynomolgus monkey C-MET on stably …; assay: flow cytometry, C-MET CHO-K1 cells; remark: listed apart in the source
Protocol: as §2

[7] = target: T4, human C-MET on stably transfected …; assay: flow cytometry, C-MET CHO-K1 cells; remark: listed apart in the source
Protocol: as §2

[8] = target: T5, Insulin; assay: polyreactivity ELISA on insulin; set-up: scale not given here
T5 construct: Coated surface of the polyreactivity (development risk) ELISA
T5 sequence (P01308 25-54, chain 1 of 2): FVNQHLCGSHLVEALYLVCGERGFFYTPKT
T5 sequence (P01308 90-110, chain 2 of 2): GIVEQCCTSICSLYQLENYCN

[9] = target: T1, human C-MET His tagged, monomeric; assay: SPR Biacore
Protocol: as §1

[10] = target: T1, human C-MET His tagged, monomeric; assay: Alphascreen epitope competition in solution: varied IgG4(S228P) against 224G11 IgG4(S228P) binding to biotinylated human C-MET, CPS (crosstalk-corrected)
Protocol: FIG. 7. Epitope competition analysis of IgG4(S228P) proteins in Alphascreen. Anti-Humanized h224G11, Grafted clone (Graft) and clones 08G07, MH7, MH7-1, MH7-2, MH7-3 in human IgG4(S228P) format were titrated (in nM) in an epitope competition assay using Alphascreen technology. In this assay, library-derived and designer IgGs were analysed for their retention of the parental 224G11 epitope by competing for 224G11 IgG4(S228P) binding to human C-MET protein, in solution.
The AlphaScreen assay (Perkin Elmer) was performed in a 25 μl final volume in 384-well white microtiter plates (Greiner). The reaction buffer contained 1×PBS pH 7.3 (Oxoid, Cat. nr. BR0014G) and 0.05% (v/v) Tween® 20 (Sigma, Cat. nr. P9416). Purified IgG samples were titrated in three fold serial dilutions starting at 50 nM final concentration and incubated with biotinylated human C-MET-His (Acrobiosystems) at 1 nM final concentration for 20 minutes at room temperature. The parental IgG and the anti-human IgG4(S228P) Acceptor beads at were added and the mix was incubated for 1 hour at room temperature. Followed by addition of the Streptavidin Donor beads and incubation for 30 minutes at room temperature. The emission of light was measured in the EnVision multilabel plate reader (Perkin Elmer) and analysed using the EnVision manager software. Values were reported as Counts Per Second (CPS) and corrected for crosstalk. […]

T1 sequence (P08581 25-932): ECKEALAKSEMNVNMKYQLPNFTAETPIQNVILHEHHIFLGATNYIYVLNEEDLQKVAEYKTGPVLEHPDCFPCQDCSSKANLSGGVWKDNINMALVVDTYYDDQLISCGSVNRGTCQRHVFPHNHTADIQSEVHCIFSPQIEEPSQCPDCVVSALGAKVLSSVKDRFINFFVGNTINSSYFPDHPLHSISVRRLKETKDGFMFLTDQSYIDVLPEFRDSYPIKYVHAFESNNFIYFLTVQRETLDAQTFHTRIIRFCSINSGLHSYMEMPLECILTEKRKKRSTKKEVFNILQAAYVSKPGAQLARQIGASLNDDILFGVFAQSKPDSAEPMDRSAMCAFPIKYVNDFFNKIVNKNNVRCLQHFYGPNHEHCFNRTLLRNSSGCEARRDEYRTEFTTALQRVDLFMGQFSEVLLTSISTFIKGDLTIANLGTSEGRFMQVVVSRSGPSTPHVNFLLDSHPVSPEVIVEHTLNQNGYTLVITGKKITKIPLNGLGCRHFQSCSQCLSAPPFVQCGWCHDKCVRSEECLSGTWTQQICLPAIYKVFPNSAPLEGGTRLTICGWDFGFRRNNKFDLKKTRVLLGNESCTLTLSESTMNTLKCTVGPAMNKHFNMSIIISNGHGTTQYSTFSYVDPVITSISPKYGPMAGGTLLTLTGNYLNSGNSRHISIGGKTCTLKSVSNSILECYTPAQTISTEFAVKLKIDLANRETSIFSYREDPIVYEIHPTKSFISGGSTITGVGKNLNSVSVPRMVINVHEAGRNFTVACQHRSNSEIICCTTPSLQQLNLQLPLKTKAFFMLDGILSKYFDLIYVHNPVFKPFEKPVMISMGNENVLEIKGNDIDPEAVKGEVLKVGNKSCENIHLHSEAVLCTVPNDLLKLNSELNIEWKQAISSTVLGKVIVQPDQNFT

| Binder | Kd [1] | koff [1] | kon [1] | Kd [2] | koff [2] | kon [2] | cyno C-MET affinity, fold of the human C-MET affinity [3] | maximum MFI, fold over Isotype IgG4 background [4] | maximum MFI, fold over Isotype IgG4 background [5] | EC50 [6] | EC50 [7] | reactivity score [8] | fold reduction in binding affinity against MH4 [9] | IC50 (read off the curve) [10] |
| --- | --- | --- | --- | --- | --- | --- | --- | --- | --- | --- | --- | --- | --- | --- |
| MH4 (antibody, IgG4, V domains shown) VH: QVQLVQSGAEVKKPGASVKVSCKASGYTFTSYTMHWVRQAPGQGLEWMGWINPSGGSTSYAQKFQGRVTMTRDTSTSTVYMELSSLRSEDTAVYYCARQEITTEFDYWGQGTLVTVSS VL: EIVLTQSPGTLSLSPGERATLSCRASQSVSSYANSYLHWYQQKPGQAPRLLIYRGSTRESGIPDRFSGSGSGTDFTLTISRLEPEDFAVYYCQQSKSEPLTFGGGTKVEIK | 280 pM | 2.5e-05 s⁻¹ | 87000 M⁻¹ s⁻¹ | 190 pM | 4.9e-05 s⁻¹ | 260000 M⁻¹ s⁻¹ | ≤ 2 fold | > 10 fold | > 10 fold | 480 pM | 1720 pM |  |  |  |
| MH10 (antibody, IgG4, V domains shown) VH: QVQLVQSGAEVKKPGASVKVSCKASGYTFTSYAMHWVRQAPGQGLEWMGWINPSGGSTSYAQKFQGRVTMTRDTSTSTVYMELSSLRSEDTAVYYCARQEITTEFDYWGQGTLVTVSS VL: EIVLTQSPGTLSLSPGERATLSCRASQSVSSYANSYLHWYQQKPGQAPRLLIYRGSTRESGIPDRFSGSGSGTDFTLTISRLEPEDFAVYYCQQSKSEPLTFGGGTKVEIK | 630 pM | 4.4e-05 s⁻¹ | 71000 M⁻¹ s⁻¹ | 200 pM | 3.6e-05 s⁻¹ | 180000 M⁻¹ s⁻¹ |  | > 10 fold | > 10 fold | 460 pM | 2140 pM |  | ~2 fold |  |
| MH7 (antibody, human IgG4, V domains shown) VH: QVQLVQSGAEVKKPGASVKVSCKASGYTFTSYTMHWVRQAPGQGLEWMGIINPSGGSTSYAQKFQGRVTMTRDTSTSTVYMELSSLRSEDTAVYYCARQEITTEFDYWGQGTLVTVSS VL: EIVLTQSPGTLSLSPGERATLSCRASQSVSSYANSYLHWYQQKPGQAPRLLIYRGSTRESGIPDRFSGSGSGTDFTLTISRLEPEDFAVYYCQQSKSEPLTFGGGTKVEIK | 300 pM | 2.9e-05 s⁻¹ | 98000 M⁻¹ s⁻¹ | 190 pM | 5.2e-05 s⁻¹ | 270000 M⁻¹ s⁻¹ | ≤ 2 fold | > 10 fold | > 10 fold | 540 pM | 1140 pM | 1 |  |  |
| 04F09 (antibody, IgG4, V domains shown) VH: QVQLVQSGAEVKKPGASVKVSCKASGYIFTSYSMHWVRQAPGQGLEWMGWINPSNGLANYAQKFQGRVTMTRDTSTSTVYMELSSLRSEDTAVYYCARQEITTEFDIWGQGTLVTVSS VL: EIVLTQSPGTLSLSPGERATLSCRASQSVESYAQSYLHWYQQKPGQAPRLLIYRGSTRESGIPDRFSGSGSGTDFTLTISRLEPEDFAVYYCQQSKSDPLTFGGGTKVEIK | 130 pM | 1.8e-05 s⁻¹ | 140000 M⁻¹ s⁻¹ | 190 pM | 5.6e-05 s⁻¹ | 290000 M⁻¹ s⁻¹ | ≤ 2 fold | > 10 fold | > 10 fold | 640 pM | 12400 pM |  |  |  |
| MH7-3 (antibody, human IgG4, V domains shown) VH: QVQLVQSGAEVKKPGASVKVSCKASGYTFTSYTMHWVRQAPGQGLEWMGIINPSGGSTSYAQKFQGRVTMTRDTSTSTVYMELSSLRSEDTAVYYCARQEITTEFDYWGQGTLVTVSS VL: EIVLTQSPGTLSLSPGERATLSCRASQSVSSYAQSYLHWYQQKPGQAPRLLIYRGSTRETGIPDRFSGSGSGTDFTLTISRLEPEDFAVYYCQQSKESPLTFGGGTKVEIK | 1310 pM | 0.000123 s⁻¹ | 94400 M⁻¹ s⁻¹ | 1030 pM | 0.000174 s⁻¹ | 168000 M⁻¹ s⁻¹ |  | > 10 fold | > 10 fold |  |  | 1 |  | ~200 pM |

Continued by falling Kd [1], values first:

| Kd [1] | koff [1] | kon [1] | Kd [2] | koff [2] | kon [2] | cyno C-MET affinity, fold of the human C-MET affinity [3] | maximum MFI, fold over Isotype IgG4 background [4] | maximum MFI, fold over Isotype IgG4 background [5] | EC50 [6] | EC50 [7] | reactivity score [8] | fold reduction in binding affinity against MH4 [9] | IC50 (read off the curve) [10] | Binder |
| --- | --- | --- | --- | --- | --- | --- | --- | --- | --- | --- | --- | --- | --- | --- |
| 1540 pM | 0.000151 s⁻¹ | 97900 M⁻¹ s⁻¹ | 1100 pM | 0.000198 s⁻¹ | 181000 M⁻¹ s⁻¹ |  | > 10 fold | > 10 fold |  |  | 1 |  |  | MH7-1 (antibody, human IgG4, V domains shown) VH: QVQLVQSGAEVKKPGASVKVSCKASGYTFTSYTMHWVRQAPGQGLEWMGIINPSGGSTSYAQKFQGRVTMTRDTSTSTVYMELSSLRSEDTAVYYCARQEITTEFDYWGQGTLVTVSS VL: EIVLTQSPGTLSLSPGERATLSCRASQSVSSYANSYLHWYQQKPGQAPRLLIYRGSTRETGIPDRFSGSGSGTDFTLTISRLEPEDFAVYYCQQSKSEPLTFGGGTKVEIK |
| 180 pM | 1.6e-05 s⁻¹ | 85000 M⁻¹ s⁻¹ | 390 pM | 6.4e-05 s⁻¹ | 170000 M⁻¹ s⁻¹ | ≤ 2 fold | > 10 fold | > 10 fold | 1110 pM | 2900 pM |  |  |  | 09E04 (antibody, IgG4, V domains shown) VH: QVQLVQSGAEVKKPGASVKVSCKASGYIFTSYTMHWVRQAPGQGLEWMGWINPNGGSTSYAQKFQGRVTMTRDTSTSTVYMELSSLRSEDTAVYYCARQEITTEFDYWGQGTLVTVSS VL: EIVLTQSPGTLSLSPGERATLSCRASQSVESYANSYLHWYQQKPGQAPRLLIYRGSTRESGIPDRFSGSGSGTDFTLTISRLEPEDFAVYYCQQYGSEPLTFGGGTKVEIK |
| 120 pM | 7.54e-06 s⁻¹ | 63400 M⁻¹ s⁻¹ | 240 pM | 2.4e-05 s⁻¹ | 100000 M⁻¹ s⁻¹ | ≤ 2 fold | > 10 fold | > 10 fold | 680 pM | 4190 pM | 1 |  |  | 08G07 (antibody, human IgG4, V domains shown) VH: QVQLVQSGAEVKKPGASVKVSCKASGYTFTSYTMHWVRQAPGQGLEWMGWINPSGGLANYAQKFQGRVTMTRDTSTSTVYMELSSLRSEDTAVYYCARSEITTDFDYWGQGTLVTVSS VL: EIVLTQSPGTLSLSPGERATLSCRASQSVDSYANSYLHWYQQKPGQAPRLLIYRGSTRESGIPDRFSGSGSGTDFTLTISRLEPEDFAVYYCQQSKSEPLTFGGGTKVEIK |
